The text below walks through data of article PMC6026317, “Molecular elements in FGF19 and FGF21 defining KLB/FGFR activity and specificity” (Molecular Metabolism, 2018).

For assay [1], the target named is T1, Soluble human FGFR1c/KLB receptor complex (FGFR1c ectodomain-Fc with soluble KLB) (human, UniProt P11362 22-376; Q86Z14 1-996).
T1 construct: human FGFR1c ectodomain fused to Fc, coupled to Protein A acceptor beads; human beta-Klotho (KLB) protein, called human soluble KLB; also called FGFR1/KLB complex; soluble FGFR1/KLB receptor complex; source: bought: R&D Systems (both chains)
T1 sequence (looked up) 1: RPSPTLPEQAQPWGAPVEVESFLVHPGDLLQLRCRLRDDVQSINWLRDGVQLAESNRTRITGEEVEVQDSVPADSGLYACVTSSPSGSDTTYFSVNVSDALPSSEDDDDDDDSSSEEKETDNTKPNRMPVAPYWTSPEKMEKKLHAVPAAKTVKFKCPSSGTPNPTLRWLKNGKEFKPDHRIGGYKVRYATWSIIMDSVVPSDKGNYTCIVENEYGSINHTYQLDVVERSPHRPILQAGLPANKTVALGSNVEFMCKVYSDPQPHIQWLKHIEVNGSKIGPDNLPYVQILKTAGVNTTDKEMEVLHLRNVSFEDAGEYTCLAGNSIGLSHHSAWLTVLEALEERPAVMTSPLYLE
T1 sequence (looked up) 2: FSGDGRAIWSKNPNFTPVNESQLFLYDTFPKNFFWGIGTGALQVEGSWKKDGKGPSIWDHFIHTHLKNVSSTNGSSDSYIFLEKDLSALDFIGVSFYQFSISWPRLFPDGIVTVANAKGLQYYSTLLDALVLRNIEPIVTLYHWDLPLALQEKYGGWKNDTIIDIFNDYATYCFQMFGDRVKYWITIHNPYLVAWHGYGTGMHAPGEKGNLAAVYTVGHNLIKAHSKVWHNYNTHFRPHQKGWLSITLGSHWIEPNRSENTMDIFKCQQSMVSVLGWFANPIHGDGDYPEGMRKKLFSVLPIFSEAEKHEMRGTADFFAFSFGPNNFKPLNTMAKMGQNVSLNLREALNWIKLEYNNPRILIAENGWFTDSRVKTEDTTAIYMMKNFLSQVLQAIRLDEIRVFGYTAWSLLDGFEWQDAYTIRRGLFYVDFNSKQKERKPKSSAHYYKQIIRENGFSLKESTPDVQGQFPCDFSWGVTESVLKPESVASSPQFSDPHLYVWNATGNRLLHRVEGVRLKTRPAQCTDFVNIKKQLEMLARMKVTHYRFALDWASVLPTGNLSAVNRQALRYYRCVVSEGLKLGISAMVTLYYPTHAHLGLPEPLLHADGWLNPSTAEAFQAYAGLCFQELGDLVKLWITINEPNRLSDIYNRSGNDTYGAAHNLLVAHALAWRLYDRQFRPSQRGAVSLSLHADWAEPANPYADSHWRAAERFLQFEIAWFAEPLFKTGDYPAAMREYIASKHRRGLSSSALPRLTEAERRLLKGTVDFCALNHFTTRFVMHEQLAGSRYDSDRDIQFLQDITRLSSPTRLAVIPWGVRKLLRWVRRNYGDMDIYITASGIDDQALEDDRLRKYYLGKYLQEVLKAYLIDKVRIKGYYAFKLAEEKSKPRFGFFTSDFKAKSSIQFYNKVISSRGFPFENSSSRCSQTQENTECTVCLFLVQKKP
The experiment in a line: AlphaScreen or HTRF; cell-free competition: biotinylated FGF21 on streptavidin donor beads, FGFR1c-Fc or FGFR4-Fc ectodomain on Protein A acceptor beads, human soluble KLB added to give the signal; 5 μg/ml heparin, 0.1% BSA; increasing doses of unlabelled protein or peptide displace biotinylated FGF21. As to conditions: both partners purified. In general terms: Bead proximity is the source of the signal in Alpha formats.

Assay [2] addresses T2, Soluble human FGFR4/KLB receptor complex (FGFR4 ectodomain-Fc with soluble KLB) (human, UniProt P22455 22-369; Q86Z14 1-996).
T2 construct: human FGFR4 ectodomain fused to Fc, coupled to Protein A acceptor beads; human beta-Klotho (KLB) protein, called human soluble KLB; also called hFGFR4/KLB; source: bought: R&D Systems (both chains)
T2 sequence (looked up) 1: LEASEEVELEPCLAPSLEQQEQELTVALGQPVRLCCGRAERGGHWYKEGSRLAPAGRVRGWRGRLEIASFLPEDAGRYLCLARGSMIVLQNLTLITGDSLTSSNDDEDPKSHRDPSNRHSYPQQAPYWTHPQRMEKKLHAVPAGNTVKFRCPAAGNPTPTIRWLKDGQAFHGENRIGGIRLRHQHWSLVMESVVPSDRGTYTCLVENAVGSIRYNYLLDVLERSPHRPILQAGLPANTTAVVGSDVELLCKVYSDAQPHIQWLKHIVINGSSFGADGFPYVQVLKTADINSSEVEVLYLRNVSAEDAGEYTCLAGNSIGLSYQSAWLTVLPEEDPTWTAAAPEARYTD
T2 sequence (looked up) 2: T1 sequence (looked up) 2
The description is as above. The settings on record: both partners purified.

B1: Human FGF21 (1-181) (ligand, UniProt Q9NSA1 29-209, looked up)
chain: HPIPDSSPLLQFGGQVRQRYLYTDDAQQTEAHLEIREDGTVGGAADQSPESLLQLKALKPGVIQILGVKTSRFLCQRPDGALYGSLHFDPEACSFRELLLEDGYNVYQSEAHGLPLHLPGNKSPHRDPAPRGPARFLPLPGLPPALPEPPGILAPQPPDVGSSDPLSMVGPSQGRSPSYAS
notes: also called fibroblast growth factor 21; native FGF21; source: E. coli OrigamiB (DE3), purified (Ni-NTA, SUMO protease digestion, Q-Sepharose)
With B1, the IC50 – broadly, the point on the concentration scale where inhibition reaches its midpoint – in assay [1] came out at 123 nM; in assay [2], 1220 nM.
